Measured values as given in patent US20250277199, “NOVEL CRISPR-CAS NUCLEASES FROM METAGENOMES” (Brain Biotech AG, published 2025).

Target: T1, BMC05 (uncultured bacterium (metagenome))
T1 chain: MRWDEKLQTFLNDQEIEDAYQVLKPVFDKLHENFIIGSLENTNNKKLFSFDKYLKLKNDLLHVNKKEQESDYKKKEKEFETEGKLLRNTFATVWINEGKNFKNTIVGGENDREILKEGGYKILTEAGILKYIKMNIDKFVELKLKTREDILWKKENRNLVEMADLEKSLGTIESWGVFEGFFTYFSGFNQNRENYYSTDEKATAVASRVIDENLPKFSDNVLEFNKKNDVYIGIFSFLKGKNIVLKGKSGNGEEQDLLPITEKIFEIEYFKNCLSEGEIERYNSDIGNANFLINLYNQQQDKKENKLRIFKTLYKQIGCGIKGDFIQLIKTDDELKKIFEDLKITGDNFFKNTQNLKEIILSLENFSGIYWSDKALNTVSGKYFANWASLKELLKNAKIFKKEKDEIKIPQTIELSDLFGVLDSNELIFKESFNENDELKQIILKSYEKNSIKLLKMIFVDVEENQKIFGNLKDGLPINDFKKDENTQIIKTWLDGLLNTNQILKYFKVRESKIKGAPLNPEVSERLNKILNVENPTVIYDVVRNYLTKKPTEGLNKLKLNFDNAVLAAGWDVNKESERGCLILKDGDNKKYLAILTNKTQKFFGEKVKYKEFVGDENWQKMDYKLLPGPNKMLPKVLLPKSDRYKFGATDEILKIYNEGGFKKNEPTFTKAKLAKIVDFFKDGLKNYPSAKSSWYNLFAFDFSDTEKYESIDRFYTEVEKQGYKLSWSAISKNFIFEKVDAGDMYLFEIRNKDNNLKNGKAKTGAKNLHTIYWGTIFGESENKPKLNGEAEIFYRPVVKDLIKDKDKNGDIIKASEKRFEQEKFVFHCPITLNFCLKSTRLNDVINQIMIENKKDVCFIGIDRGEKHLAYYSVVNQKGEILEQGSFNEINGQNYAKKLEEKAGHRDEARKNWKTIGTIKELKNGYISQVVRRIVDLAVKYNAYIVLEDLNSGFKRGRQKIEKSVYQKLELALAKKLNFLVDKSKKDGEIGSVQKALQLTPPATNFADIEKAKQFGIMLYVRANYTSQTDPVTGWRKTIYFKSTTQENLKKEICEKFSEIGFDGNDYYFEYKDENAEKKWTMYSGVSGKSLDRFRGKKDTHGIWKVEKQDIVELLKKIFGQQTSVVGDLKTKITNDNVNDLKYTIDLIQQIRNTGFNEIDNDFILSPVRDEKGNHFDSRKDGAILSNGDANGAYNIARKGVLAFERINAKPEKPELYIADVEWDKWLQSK
Assay: cell_activity; PAM not stated; E. coli depletion, 30 C
Procedure, shortened: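 E. coli carrying arabinose-induced (0.2%) BMC nuclease, grown at 30° C., made electrocompetent and electroporated with 50-100 ng plasmid carrying gRNA against malQ. Transformants plated on selective M9-glucose agar with kanamycin/ampicillin (± nourseothricin), and growth scored after 48 h at 30° C.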

B1: malQ gRNA (BMC stem-loop + 24 nt spacer) ; malQ protospacer (ssRNA ; dsDNA)
RNA: GAUUUCUACUAUUGUAGAUGUGGCGGUACGUUGAUGCAUCGCG
DNA 1: GTGGCGGTACGTTGATGCATCGCG
DNA 2: CGCGATGCATCAACGTACCGCCAC
  activity: > 99.9 % colony reduction
